Bridge positions count the residues as written; N and C are the ends. Ends that are not written are not given here. I, II: the chains in the order shown. * marks the point of attachment. Formula (I) = human serum albumin binder 2-[2-[2-[2-[2-[2-[2-(carbonylmethoxy)ethoxy]ethylamino]-2-oxo-ethoxy]ethoxy]ethylamino]-2-oxo-ethoxy]-5-(18-carboxyoctadecyl)benzoic acid, amide to Lys epsilon-N, O=C(O)CCCCCCCCCCCCCCCCCCc1ccc(OCC(=O)NCCOCCOCC(=O)NCCOCCOCC(=O)*)c(C(=O)O)c1
Legend:
[1] = biological target: human insulin receptor isoform B (human) (UniProt P06213); test: cell-based or functional assay
[2] = biological target: human insulin receptor isoform B (human) (UniProt P06213); test: SPA competition with [125I]-labelled human insulin, membranes of CHO cells overexpressing IR

Chain of UniProt P06213 (P06213 28-1382): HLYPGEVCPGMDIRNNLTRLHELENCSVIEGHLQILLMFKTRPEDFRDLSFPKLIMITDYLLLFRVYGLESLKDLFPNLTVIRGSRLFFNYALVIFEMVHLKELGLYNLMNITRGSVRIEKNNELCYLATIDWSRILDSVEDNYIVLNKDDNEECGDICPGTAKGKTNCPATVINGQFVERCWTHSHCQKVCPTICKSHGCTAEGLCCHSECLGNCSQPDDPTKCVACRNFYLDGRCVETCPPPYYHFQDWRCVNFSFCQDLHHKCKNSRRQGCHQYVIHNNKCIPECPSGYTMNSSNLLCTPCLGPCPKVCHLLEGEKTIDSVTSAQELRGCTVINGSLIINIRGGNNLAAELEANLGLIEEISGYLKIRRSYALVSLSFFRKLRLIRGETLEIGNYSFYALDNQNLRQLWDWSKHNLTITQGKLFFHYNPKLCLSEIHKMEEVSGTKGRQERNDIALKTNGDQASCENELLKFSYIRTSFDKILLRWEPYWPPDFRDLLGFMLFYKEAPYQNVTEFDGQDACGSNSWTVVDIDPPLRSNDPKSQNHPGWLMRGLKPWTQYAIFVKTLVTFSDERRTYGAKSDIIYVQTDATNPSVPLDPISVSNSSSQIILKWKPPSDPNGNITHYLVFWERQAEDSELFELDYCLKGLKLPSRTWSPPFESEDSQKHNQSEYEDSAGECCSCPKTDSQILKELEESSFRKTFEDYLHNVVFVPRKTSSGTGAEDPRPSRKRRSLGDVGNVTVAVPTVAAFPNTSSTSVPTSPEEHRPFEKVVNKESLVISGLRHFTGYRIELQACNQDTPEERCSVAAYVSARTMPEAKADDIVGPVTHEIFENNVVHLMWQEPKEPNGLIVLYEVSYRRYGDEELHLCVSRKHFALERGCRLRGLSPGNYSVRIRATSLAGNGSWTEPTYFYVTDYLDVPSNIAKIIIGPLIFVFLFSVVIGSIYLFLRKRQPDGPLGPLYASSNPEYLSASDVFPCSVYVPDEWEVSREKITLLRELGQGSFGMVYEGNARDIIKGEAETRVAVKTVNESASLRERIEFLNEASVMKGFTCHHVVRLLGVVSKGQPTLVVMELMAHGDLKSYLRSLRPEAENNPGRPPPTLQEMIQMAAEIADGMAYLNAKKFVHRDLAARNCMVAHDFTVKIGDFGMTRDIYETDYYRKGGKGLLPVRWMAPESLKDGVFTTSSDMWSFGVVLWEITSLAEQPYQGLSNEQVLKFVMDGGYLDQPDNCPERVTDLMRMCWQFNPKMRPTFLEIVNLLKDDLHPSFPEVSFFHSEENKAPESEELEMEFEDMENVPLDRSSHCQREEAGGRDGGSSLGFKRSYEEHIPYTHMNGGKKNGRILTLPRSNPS

B1: Conjugate 1: Arg(A5)Glu(A14)Arg(A18)Gly(A21)Glu(B16)His(B25)Arg(B27)Arg(B31)-insulin with the human serum albumin binder of Formula (I) on Lys(B29) (ligand)
chain 1: GIVERCCTSICSLEQLERYCG
chain 2: FVNQHLCGSHLVEALELVCGERGFHYRPK(Formula (I))TR
modifications: disulfide I:6-I:11, I:20-II:19, I:7-II:7
[1]
  Autophosphorylation activity (relative to human insulin) (relative to human insulin): 0.07
[2]
  Insulin receptor B binding affinity relative to human insulin: < 2%
  Insulin-receptor binding affinity relative to human insulin (relative to human insulin): 0.01

Source: patent publication US20250082758A1
